Target: recombinant human PD-L1 (rhPD-L1) ectodomain (human) (UniProt Q9NZQ7)
Test: SPR

Chain of UniProt Q9NZQ7 (Q9NZQ7 19-238): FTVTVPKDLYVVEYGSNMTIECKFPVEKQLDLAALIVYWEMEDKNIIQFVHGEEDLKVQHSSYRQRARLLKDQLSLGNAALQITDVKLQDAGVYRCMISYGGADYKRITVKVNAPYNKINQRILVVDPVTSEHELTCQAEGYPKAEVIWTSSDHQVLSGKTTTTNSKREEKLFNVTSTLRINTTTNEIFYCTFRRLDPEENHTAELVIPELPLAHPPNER

Row | Substance | response (RU)
1 | MVF-PD-1 (32–50) (from UniProt P69353 288-302) (peptide) | 11
2 | MVF-PD-1 (45–64) (from UniProt P69353 288-302) (peptide) | 110
3 | MVF-PD-1 (73–90) (from UniProt P69353 288-302) (peptide) | 110
4 | MVF-PD-1 (92–110) (from UniProt P69353 288-302) (peptide) | 110

— publication PMC7553530
